Measurements taken from PMC4860839, “Structures of the APC–ARM domain in complexes with discrete Amer1/WTX fragments reveal that it uses a consensus mode to recognize its binding partners” (Cell Discovery, 2015).

B1: Amer1 (766–823, Δ778–794) (domain or fragment, human, UniProt Q5JTC6 766-823, looked up)
chain: TVSFSQALVEFTSFTQNLPELPPMVTFDIADVERDGEGKCE
notes: human Amer1/WTX residues 766–823 with residues 778–794 deleted; not shown: GST, N-terminal, kept
B2: APC–ARM, human APC (407–751), N-terminally His-tagged (domain or fragment, UniProt P25054 407-751, looked up)
chain: LHLLEQIRAYCETCWEWQEAHEPGMDQDKNPMPAPVEHQICPAVCVLMKLSFDEEHRHAMNELGGLQAIAELLQVDCEMYGLTNDHYSITLRRYAGMALTNLTFGDVANKATLCSMKGCMRALVAQLKSESEDLQQVIASVLRNLSWRADVNSKKTLREVGSVKALMECALEVKKESTLKSVLSALWNLSAHCTENKADICAVDGALAFLVGTLTYRSQTNTLAIIESGGGILRNVSSLIATNEDHRQILRENNCLQTLLQHLKSHSLTIVSNACGTLWNLSARNPKDQEALWDMGAVSMLKNLIHSKHKMIAMGSAAALRNLMANRPAKYKDANIMSPGSSLPS
notes: human APC, armadillo repeat (ARM) domain, residues 407–751; source: E. coli BL21(DE3), purified (Ni2+-NTA, Superdex200)
B3: GST-Amer1 (496–508), core A2 (domain or fragment, human)
chain: PRDSYSGDALYEF
notes: human Amer1/WTX residues 496–508; The results call the ITC samples peptides; the ITC methods name GST-Amer1 proteins; also called Amer1-A2; not shown: GST, N-terminal, kept
B4: GST-Amer1 (380–531), full A2 (domain or fragment, human, UniProt Q5JTC6 380-531, looked up)
chain: EEEEEEEEVELEEEEEEVKEEEEDDDLEYLWETAQMYPRPNMNLGYHPTTSPGHHGYMLLDPVRSYPGLAPGELLTPQSDQQESAPNSDEGYYDSTTPGFEDDSGEALGLVRRDCLPRDSYSGDALYEFYEPDDSLENSPPGDDCLYDLHGR
notes: the methods print full A2: 400–531; also called full Amer1-A2; not shown: GST, N-terminal, kept
B5: GST-Amer1 (365–375), A4 (domain or fragment, human)
chain: YQGGGEEMALP
notes: human Amer1/WTX residues 365–375; also called Amer1-A4; not shown: GST, N-terminal, kept
B6: GST-Amer1 (325–335), core A1 (domain or fragment, human)
chain: LTGCGDIIAEQ
notes: human Amer1/WTX residues 325–335; The results call the ITC samples peptides; the ITC methods name GST-Amer1 proteins; also called Amer1-A1; not shown: GST, N-terminal, kept
B7: GST-Amer1 (280–368), full A1 (domain or fragment, human, UniProt Q5JTC6 280-368, looked up)
chain: SLEEPHSPETGEKVVAGEVNPPNGPVGDPLSLLFGDVTSLKSFDSLTGCGDIIAEQDMDSMTDSMASGGQRANRDGTKRSSCLVTYQGG
notes: the methods print full A1: 280–364; also called full Amer1-A1; not shown: GST, N-terminal, kept
B8: APC–ARM, human APC (407–775), N-terminally His-tagged (domain or fragment, UniProt P25054 407-775, looked up)
chain: LHLLEQIRAYCETCWEWQEAHEPGMDQDKNPMPAPVEHQICPAVCVLMKLSFDEEHRHAMNELGGLQAIAELLQVDCEMYGLTNDHYSITLRRYAGMALTNLTFGDVANKATLCSMKGCMRALVAQLKSESEDLQQVIASVLRNLSWRADVNSKKTLREVGSVKALMECALEVKKESTLKSVLSALWNLSAHCTENKADICAVDGALAFLVGTLTYRSQTNTLAIIESGGGILRNVSSLIATNEDHRQILRENNCLQTLLQHLKSHSLTIVSNACGTLWNLSARNPKDQEALWDMGAVSMLKNLIHSKHKMIAMGSAAALRNLMANRPAKYKDANIMSPGSSLPSLHVRKQKALEAELDAQHLSETFDN
notes: human APC, ARM domain, residues 407–775; source: E. coli BL21(DE3), purified (Ni2+-NTA, Superdex200)
B11: GST-Amer1 (716–834), A3 (domain or fragment, human, UniProt Q5JTC6 716-834, looked up)
chain: TCLMQLFQSDAMFEPDMQEANFGGSPRRAYPTYSPPEDPEEEEVEKEGNATVSFSQALVEFTSNGNLFSSMSCSSDSDSSFTQNLPELPPMVTFDIADVERDGEGKCEENPEFHNDEDL
notes: human Amer1/WTX residues 716–834; The methods list only A3: 766–823 among the GST constructs; not shown: GST, N-terminal, kept
B12: GST-Amer1 (766–823), core A3 (domain or fragment, human, UniProt Q5JTC6 766-823, looked up)
chain: TVSFSQALVEFTSNGNLFSSMSCSSDSDSSFTQNLPELPPMVTFDIADVERDGEGKCE
notes: human Amer1/WTX residues 766–823; not shown: GST, N-terminal, kept

Assays:
[1] = biological target: FL Amer1/WTX (pcDNA-Flag-Amer1) (not stated (human or mouse cDNA cloned)) (UniProt Q5JTC6); assay: co-IP; HEK293T cells transiently transfected; immunoprecipitation with anti-GFP or anti-FLAG M2 beads, western blot
[2] = biological target: B8; assay: ITC; ITC200, 25 °C; 50 mM HEPES pH 7.5, 300 mM NaCl, 1 mM EDTA; typically 200 μM APC–ARM injected into 20 μM GST-Amer1 fragment, or 1 mM GST-Amer1 fragment into 80 μM APC–ARM; single-site model; conditions: both partners purified
[3] = biological target: B7; assay: as above; conditions: both partners purified
[4] = biological target: B6; assay: as above; conditions: both partners purified
[5] = biological target: B4; assay: as above; conditions: both partners purified
[6] = biological target: B3; assay: as above; conditions: both partners purified
[7] = biological target: B5; assay: as above; conditions: both partners purified
[8] = biological target: B2; assay: as above; conditions: both partners purified
[9] = biological target: B11; assay: as above; conditions: both partners purified
[10] = biological target: B12; assay: as above; conditions: both partners purified
[11] = biological target: B1; assay: as above; conditions: both partners purified
[12] = biological target: B2; assay: crystal structure; APC–ARM mixed with synthetic Amer1 peptide at 1:1.5; hanging drop, 14 °C; conditions: both partners purified

Chain of FL Amer1/WTX (pcDNA-Flag-Amer1) (not stated (human or mouse cDNA cloned)) (Q5JTC6 whole entry, the tested form may be a part): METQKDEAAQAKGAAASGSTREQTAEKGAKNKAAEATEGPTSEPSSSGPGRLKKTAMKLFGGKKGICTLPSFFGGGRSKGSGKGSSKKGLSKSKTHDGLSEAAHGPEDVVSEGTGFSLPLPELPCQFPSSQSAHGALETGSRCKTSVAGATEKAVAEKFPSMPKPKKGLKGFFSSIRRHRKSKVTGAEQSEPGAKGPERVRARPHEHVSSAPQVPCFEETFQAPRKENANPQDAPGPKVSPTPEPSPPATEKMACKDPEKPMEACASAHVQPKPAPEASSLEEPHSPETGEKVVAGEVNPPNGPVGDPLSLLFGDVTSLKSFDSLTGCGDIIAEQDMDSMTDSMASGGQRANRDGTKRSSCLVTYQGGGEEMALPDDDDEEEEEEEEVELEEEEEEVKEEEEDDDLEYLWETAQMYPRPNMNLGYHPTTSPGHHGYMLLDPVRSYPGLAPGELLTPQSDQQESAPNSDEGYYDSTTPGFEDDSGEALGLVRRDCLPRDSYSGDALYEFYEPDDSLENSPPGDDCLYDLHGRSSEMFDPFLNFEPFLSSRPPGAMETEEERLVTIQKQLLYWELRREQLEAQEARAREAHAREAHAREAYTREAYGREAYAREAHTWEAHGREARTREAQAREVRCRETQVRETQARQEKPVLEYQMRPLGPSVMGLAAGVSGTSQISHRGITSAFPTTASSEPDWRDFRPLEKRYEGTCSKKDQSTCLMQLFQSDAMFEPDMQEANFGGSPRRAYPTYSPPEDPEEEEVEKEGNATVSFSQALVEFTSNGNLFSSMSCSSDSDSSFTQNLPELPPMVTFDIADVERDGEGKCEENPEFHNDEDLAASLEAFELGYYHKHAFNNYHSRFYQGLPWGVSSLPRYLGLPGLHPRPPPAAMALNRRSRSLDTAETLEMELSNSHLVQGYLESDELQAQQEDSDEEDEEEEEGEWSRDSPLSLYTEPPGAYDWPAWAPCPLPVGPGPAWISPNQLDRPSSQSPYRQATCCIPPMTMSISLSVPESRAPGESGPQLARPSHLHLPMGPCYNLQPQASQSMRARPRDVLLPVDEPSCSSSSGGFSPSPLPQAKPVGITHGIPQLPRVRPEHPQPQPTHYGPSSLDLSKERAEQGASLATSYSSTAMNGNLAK

**Q.** How did the reduction of association against wild type APC–ARM (densitometry) [1] turn out when “pEGFP-APC–ARM-K516E/M717K double mutant (domain or fragment)” was run?
**A.** 60%

**Q.** For B1, which Kd [2] is on record?
**A.** 220 ± 110 nM

**Q.** How did the dH [3] turn out when B2 was run?
**A.** -1.12 ± 0.55 kcal/mol

**Q.** What about the “stoichiometry N” value [3] of the same molecule?
**A.** 0.97 ± 0.39 Amer1/APC ratio

**Q.** What about the dH [4] of the same molecule?
**A.** -0.9 ± 0.1 kcal/mol

**Q.** What about the “stoichiometry N” value [4] of the same molecule?
**A.** 0.9 ± 0.08 Amer1/APC ratio

**Q.** What about the dH [5] of the same molecule?
**A.** -3.5 ± 0.1 kcal/mol

**Q.** And the “stoichiometry N” value [5]?
**A.** 0.92 ± 0.02 Amer1/APC ratio

**Q.** What about the dH [6] of the same molecule?
**A.** -5.2 ± 0.2 kcal/mol

**Q.** What about the “stoichiometry N” value [6] of the same molecule?
**A.** 1.08 ± 0.02 Amer1/APC ratio

**Q.** What about the dH [7] of the same molecule?
**A.** -3.5 ± 0.1 kcal/mol

**Q.** What about the “stoichiometry N” value [7] of the same molecule?
**A.** 0.95 ± 0.02 Amer1/APC ratio

**Q.** With B3 as the molecule, how does the Kd [8] read?
**A.** 1100 ± 200 nM

**Q.** Which Kd [8] does the source give for B4 here?
**A.** 500 ± 100 nM

**Q.** B5 was tested. Which Kd [8] did it give?
**A.** 2000 ± 300 nM

**Q.** For B6, which Kd [8] is on record?
**A.** 14400 ± 4300 nM

**Q.** Which Kd [8] does the source give for B7 here?
**A.** 8000 ± 4100 nM

**Q.** For B8, which dH [9] is on record?
**A.** -1.82 ± 0.06 kcal/mol

**Q.** What about the “stoichiometry N” value [9] of the same molecule?
**A.** 0.99 ± 0.02 Amer1/APC ratio

**Q.** And the dH [10]?
**A.** -1.82 ± 0.04 kcal/mol

**Q.** What about the “stoichiometry N” value [10] of the same molecule?
**A.** 1 ± 0.02 Amer1/APC ratio

**Q.** And the dH [11]?
**A.** -1.39 ± 0.06 kcal/mol

**Q.** What about the “stoichiometry N” value [11] of the same molecule?
**A.** 1.02 ± 0.03 Amer1/APC ratio

B9: Amer1-A2 peptide (residues 496–508) (peptide)
peptide: H-PRDSYSGDALYEF-OH
notes: human Amer1/WTX residues 496–508; also called hAmer1-A2 (496–508); source: synthetic peptide (Appeptide Company), HPLC purified
**Q.** Does B9 bind [12]?
**A.** binds

B10: Amer1-A1 peptide (residues 325–335) (peptide)
peptide: H-LTGCGDIIAEQ-OH
notes: human Amer1/WTX residues 325–335; also called hAmer1-A1 (325–335); source: synthetic peptide (Appeptide Company), HPLC purified
**Q.** Does B10 bind [12]?
**A.** binds

**Q.** B11 was tested. Which Kd [2] did it give?
**A.** 130 ± 60 nM

**Q.** B12 was tested. Which Kd [2] did it give?
**A.** 270 ± 70 nM

B13: Amer1-A4 peptide (residues 365–375) (peptide)
peptide: H-YQGGGEEMALP-OH
notes: human Amer1/WTX residues 365–375; also called hAmer1-A4 (365–375); source: synthetic peptide (Appeptide Company), HPLC purified
**Q.** Does B13 bind [12]?
**A.** binds
